Measured values: publication PMC12750270, “Design and Preclinical Evaluation of a ^68Ga-Labeled Macrocyclic Peptide PET Probe Targeting Transferrin Receptor 1 in Colorectal Cancer” (ACS Omega, 2025)
One block for each binder: values may come before it.

How the values were obtained:
[1] = biological target: Transferrin Receptor 1 (TfR1/CD71) on human colorectal cancer cells (HT29: high expression); LOVO: low … (human (endogenous in HT29 and LOVO), UniProt P02786 1-760); assay: cell-based or functional assay
Sequence of Transferrin Receptor 1 (TfR1/CD71) on human colorectal cancer cells (HT29: high expression); LOVO: low … (P02786 whole entry): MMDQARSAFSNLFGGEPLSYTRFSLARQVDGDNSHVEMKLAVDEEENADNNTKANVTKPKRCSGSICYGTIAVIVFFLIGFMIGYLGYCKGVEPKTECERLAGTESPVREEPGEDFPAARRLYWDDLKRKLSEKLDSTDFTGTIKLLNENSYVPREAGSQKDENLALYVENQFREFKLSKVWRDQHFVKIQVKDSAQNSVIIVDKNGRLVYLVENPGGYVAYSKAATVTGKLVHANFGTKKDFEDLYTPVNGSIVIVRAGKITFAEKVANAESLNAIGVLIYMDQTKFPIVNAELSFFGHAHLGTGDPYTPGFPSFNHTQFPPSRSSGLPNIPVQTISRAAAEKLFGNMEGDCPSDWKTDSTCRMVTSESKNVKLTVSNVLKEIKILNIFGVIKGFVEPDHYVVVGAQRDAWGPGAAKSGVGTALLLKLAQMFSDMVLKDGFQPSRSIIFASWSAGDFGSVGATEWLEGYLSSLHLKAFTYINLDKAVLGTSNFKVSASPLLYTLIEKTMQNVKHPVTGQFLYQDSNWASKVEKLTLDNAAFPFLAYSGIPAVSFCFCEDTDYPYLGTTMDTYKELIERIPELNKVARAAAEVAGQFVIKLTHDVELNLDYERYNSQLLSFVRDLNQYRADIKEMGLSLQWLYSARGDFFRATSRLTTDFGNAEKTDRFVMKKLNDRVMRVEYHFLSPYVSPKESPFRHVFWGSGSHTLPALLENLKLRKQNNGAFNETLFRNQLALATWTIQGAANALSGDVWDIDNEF

[2] = biological target: T1, Recombinant human TfR1-Fc protein (TFR-H5264, Acro Biosystems) (human, UniProt P02786 101-760); assay: SPR; Biacore 8K; recombinant human TfR1-Fc immobilized on the sensor chip; TR01 at 62.5–1,000 nM; as printed: 'acidic conditions (pH 2.0) using a running buffer containing TfR1 at 30 μg/mL'; global fit of association and dissociation curves; settings: both partners purified
T1 construct: Transferrin receptor 1 (TfR1/CD71), human; As recalled, the supplier's TfR1 constructs hold the extracellular part (about Cys89-Phe760); source: bought: Acro Biosystems
T1 sequence (P02786 101-760): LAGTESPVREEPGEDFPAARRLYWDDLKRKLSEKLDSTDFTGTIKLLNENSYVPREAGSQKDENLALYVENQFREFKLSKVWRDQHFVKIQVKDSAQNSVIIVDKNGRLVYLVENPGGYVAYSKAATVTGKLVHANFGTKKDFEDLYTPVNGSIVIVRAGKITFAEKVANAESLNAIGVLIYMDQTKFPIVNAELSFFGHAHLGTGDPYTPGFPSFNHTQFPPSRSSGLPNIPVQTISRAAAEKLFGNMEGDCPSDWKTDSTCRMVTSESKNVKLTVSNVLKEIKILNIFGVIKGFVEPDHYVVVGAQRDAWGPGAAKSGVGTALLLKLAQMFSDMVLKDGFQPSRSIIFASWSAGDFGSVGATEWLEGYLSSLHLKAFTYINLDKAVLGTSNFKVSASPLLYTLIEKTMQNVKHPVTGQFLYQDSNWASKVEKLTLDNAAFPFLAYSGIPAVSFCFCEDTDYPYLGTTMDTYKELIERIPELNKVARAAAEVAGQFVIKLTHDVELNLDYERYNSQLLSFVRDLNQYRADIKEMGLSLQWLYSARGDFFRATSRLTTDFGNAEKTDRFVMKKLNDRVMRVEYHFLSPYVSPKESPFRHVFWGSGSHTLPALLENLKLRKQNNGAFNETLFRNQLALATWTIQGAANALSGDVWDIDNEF

biodistribution: tumor-to-muscle (T/M) ratio in HT29 tumor-bearing mice, 30 to 120 min postinjection (3.73, 5.10, 9.18) [1]: 9.18
biodistribution: tumor-to-muscle (T/M) ratio in LOVO-bearing mice (low TfR1), 30 to 120 min postinjection (2.30, 3.16, 5.01) [1]: 5.01
tumor-to-muscle (T/M) ratio in HT29 xenografts by micro-PET/CT with coinjection of excess unlabeled NOTA-TR01, 30 to 120 min (0.47, 0.45, 0.86) [1]: 0.86
tumor-to-muscle (T/M) ratio in HT29 xenografts by micro-PET/CT, 30 to 120 min postinjection (2.79, 3.98, 7.88) [1]: 7.88
tumor-to-muscle (T/M) ratio in LOVO xenografts (low TfR1) by micro-PET/CT, 30 to 120 min postinjection (1.65, 2.30, 2.94) [1]: 2.94
B1: ^68Ga-NOTA-TR01 (peptide)
peptide: AVFVWNYYIIRRYYCK
modifications: cyclo(Ac-Ala1 ... Cys15) as printed; N-terminal Ac; NMe-Tyr at position 14; PEG12 between Cys15 and the C-terminal Lys; NOTA on the Lys, holding ^68Ga

Kd [2]: 22.3 nM
koff [2]: 0.00173 s⁻¹
kon [2]: 77300 M⁻¹ s⁻¹
B2: NOTA-TR01 [cyclo(Ac-Ala-Val-Phe-Val-Trp-Asn-Tyr-Tyr-Ile-Ile-Arg-Arg-Tyr-NMe-Tyr-Cys)-PEG12-Lys-NOTA] (peptide)
peptide: AVFVWNYYIIRRYYCK
modifications: cyclo(Ac-Ala1 ... Cys15) as printed; N-terminal Ac; NMe-Tyr at position 14; PEG12 between Cys15 and the C-terminal Lys; NOTA on the Lys
notes: the 15-residue macrocycle, printed in three-letter code; position 14 is N-methyl-Tyr; C-terminal Lys that carries NOTA; joined to Cys15 through a PEG12 spacer (no amino acids); a thioether from an N-terminal chloroacetyl group is only surmised; also called unlabeled TR01; unlabeled NOTA-TR01; source: synthetic peptide, custom synthesized by A+ Peptide (Shanghai, China), >95% purity
